Test [1] addresses T1, SARS-CoV-2 spike protein receptor-binding domain (SARS-CoV-2, UniProt P0DTC2). In words: SPR. (In SPR one partner is held on a chip, and binding of the other changes the refractive index at the surface.)
Test [2] addresses T1, SARS-CoV-2 spike protein …. In words: crystal structure.

B1: LY-CoV555 (antibody, V domains shown)
VH: QVQLVQSGAEVKKPGSSVKVSCKASGGTFSNYAISWVRQAPGQGLEWMGRIIPILGIANYAQKFQGRVTITADKSTSTAYMELSSLRSEDTAVYYCARGYYEARHYYYYYAMDVWGQGTAVTVSS
VL: not shown
Turning to B1, in test [1], the binding result is “binds”.

B2: LY-CoV555 Fab (Fab, V domains shown)
VH: B1 VH
VL: not shown
As to B2, in test [2], the binding result was “binds”.

Values taken from publication doi:10.1101/2020.09.30.318972 (bioRxiv, 2020).
